Primed or numbered codes have the meaning given here. The star is where a group is joined. 5FAM = O=C1OC2(c3ccc(O)cc3Oc3cc(O)ccc32)c2ccc(C(=O)*)cc21; Dabcyl′ = CN(C)c1ccc(/N=N/c2ccc(C(=O)*)cc2)cc1

This assay concerns the target ADAM9-P750L (rs144750648) (human) (UniProt Q13443). On the set-up: unit not given beside the values.
Sequence of UniProt Q13443 (Q13443 29-819 P750L): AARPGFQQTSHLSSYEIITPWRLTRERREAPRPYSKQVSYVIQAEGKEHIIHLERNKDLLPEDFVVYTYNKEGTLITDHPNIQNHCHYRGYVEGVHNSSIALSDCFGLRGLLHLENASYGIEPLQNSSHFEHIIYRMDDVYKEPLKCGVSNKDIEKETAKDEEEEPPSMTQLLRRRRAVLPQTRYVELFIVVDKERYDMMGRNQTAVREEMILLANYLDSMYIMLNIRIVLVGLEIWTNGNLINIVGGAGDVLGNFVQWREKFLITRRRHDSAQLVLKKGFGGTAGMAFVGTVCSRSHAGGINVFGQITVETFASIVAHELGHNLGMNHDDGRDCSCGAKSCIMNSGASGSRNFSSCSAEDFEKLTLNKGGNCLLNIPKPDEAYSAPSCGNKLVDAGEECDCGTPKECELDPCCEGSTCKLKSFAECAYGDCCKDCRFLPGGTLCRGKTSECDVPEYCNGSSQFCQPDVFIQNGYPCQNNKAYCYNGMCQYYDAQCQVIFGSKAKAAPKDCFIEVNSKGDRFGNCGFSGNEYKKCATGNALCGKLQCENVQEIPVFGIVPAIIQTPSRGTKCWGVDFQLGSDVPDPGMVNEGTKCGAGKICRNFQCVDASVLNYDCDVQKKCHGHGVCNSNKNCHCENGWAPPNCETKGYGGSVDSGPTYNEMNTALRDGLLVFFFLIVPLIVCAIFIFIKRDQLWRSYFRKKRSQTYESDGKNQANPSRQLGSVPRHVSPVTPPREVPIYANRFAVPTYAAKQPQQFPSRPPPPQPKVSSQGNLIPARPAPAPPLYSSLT

B1: ADAM9 fluorogenic substrate PEPDAB010 (Dabcyl-…[5-FAM]-NH2) (peptide)
peptide: {Dabcyl′}-SPLAQAVRSSK(5FAM)-NH2
SMILES: CC(C)C[C@H](NC(=O)[C@@H]1CCCN1C(=O)[C@H](CO)NC(=O)c1ccc(/N=N/c2ccc(N(C)C)cc2)cc1)C(=O)N[C@@H](C)C(=O)N[C@@H](CCC(N)=O)C(=O)N[C@@H](C)C(=O)N[C@H](C(=O)N[C@@H](CCCNC(=N)N)C(=O)N[C@@H](CO)C(=O)N[C@@H](CO)C(=O)N[C@@H](CCCCNC(=O)c1ccc2c(c1)C(=O)OC21c2ccc(O)cc2Oc2cc(O)ccc21)C(N)=O)C(C)C
B1: the Km of cleavage of the fluorogenic substrate PEPDAB010 (Lineweaver-Burk plot, lysates of transfected HEK293 cells), reduction compared to ADAM9 WT (% reduction of Km compared to ADAM9 WT) came out at 41.9.

(Values after article PMC12052454.)
